According to patent US20130251724A1 (GlaxoSmithKline, published 2013):
Positions count from the first letter of the chain named. Several values for one entry are separate records, joined by “and”; a condition that tells them apart may be missing. Equal values may be shown once. Read-outs that look alike come from different tables or passages of the source. One block for each binder: values may come before it.

Legend:
[1] = target: T1, Human OSM (human, UniProt P13725 26-221); test: BIAcore kinetics, purified antibody
T1 construct: Recombinant human OSM; also called hOSM; human Oncostatin M
T1 sequence: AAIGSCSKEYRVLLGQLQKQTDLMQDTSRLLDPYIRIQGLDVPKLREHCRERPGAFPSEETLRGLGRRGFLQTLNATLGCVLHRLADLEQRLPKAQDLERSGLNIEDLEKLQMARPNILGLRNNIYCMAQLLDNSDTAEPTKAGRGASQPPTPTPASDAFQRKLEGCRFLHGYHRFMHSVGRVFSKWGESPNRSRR

[2] = target: T2, Cynomolgus OSM (cynomolgus, UniProt A0A2K5VPC6 26-221); test: BIAcore kinetics, purified antibody
T2 construct: also called Cyno OSM; cynomolgus macaque OSM
T2 sequence: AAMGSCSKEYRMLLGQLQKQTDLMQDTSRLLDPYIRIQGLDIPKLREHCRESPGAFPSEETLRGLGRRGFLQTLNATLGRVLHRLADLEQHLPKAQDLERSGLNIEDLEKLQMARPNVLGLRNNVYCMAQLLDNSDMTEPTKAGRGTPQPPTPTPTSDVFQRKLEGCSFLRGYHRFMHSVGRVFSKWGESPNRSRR

[3] = target: T1, Human OSM; test: cell-based or functional assay
[4] = target: T2, Cynomolgus OSM; test: cell-based or functional assay
[5] = target: T1, Human OSM; test: BIAcore kinetics, purified antibody; remark: listed apart in the source
[6] = target: T2, Cynomolgus OSM; test: BIAcore kinetics, purified antibody; remark: listed apart in the source
[7] = target: T3, Endogenous human OSM (neutrophil-derived) (human, UniProt P13725 26-221, limits assumed); test: gp130 ELISA with endogenous neutrophil-derived human OSM
T3 construct: Native OSM generated from GM-CSF stimulation of healthy human neutrophils; also called native OSM; endogenous OSM
T3 sequence: T1 sequence

[8] = target: T1, Human OSM; test: BIAcore kinetics, purified antibody; remark: listed apart in the source
[9] = target: T2, Cynomolgus OSM; test: BIAcore kinetics, purified antibody; remark: listed apart in the source
[10] = target: T1, Human OSM; test: cell-based or functional assay; remark: listed apart in the source
[11] = target: T2, Cynomolgus OSM; test: cell-based or functional assay; remark: listed apart in the source
[12] = target: T1, Human OSM; test: BIAcore kinetics, transfection supernatant
[13] = target: T2, Cynomolgus OSM; test: BIAcore kinetics, transfection supernatant
[14] = target: T1, Human OSM; test: BIAcore kinetics, transfection supernatant; remark: listed apart in the source
[15] = target: T1, Human OSM; test: cell-based or functional assay; remark: listed apart in the source
[16] = target: Marmoset OSM (marmoset); test: cell-based or functional assay
[17] = target: T2, Cynomolgus OSM; test: cell-based or functional assay; remark: listed apart in the source
[18] = target: T1, Human OSM; test: cell-based or functional assay; remark: listed apart in the source
[19] = target: T2, Cynomolgus OSM; test: cell-based or functional assay; remark: listed apart in the source
[20] = target: T1, Human OSM; test: BIAcore kinetics
[21] = target: T2, Cynomolgus OSM; test: BIAcore kinetics
[22] = target: T1, Human OSM; test: human gp130 ELISA, inhibition of OSM binding to gp130
[23] = target: T2, Cynomolgus OSM; test: as above
[24] = target: T3, Endogenous human OSM …; test: gp130 ELISA with endogenous neutrophil-derived human OSM; remark: listed apart in the source
[25] = target: T1, Human OSM; test: BIAcore kinetics; remark: listed apart in the source
[26] = target: T2, Cynomolgus OSM; test: BIAcore kinetics; remark: listed apart in the source
[27] = target: T1, Human OSM; test: cell-based or functional assay; remark: listed apart in the source
[28] = target: T2, Cynomolgus OSM; test: cell-based or functional assay; remark: listed apart in the source
[29] = target: T1, Human OSM; test: cell-based or functional assay; remark: listed apart in the source
[30] = target: T1, Human OSM; test: human gp130 ELISA, inhibition of OSM binding to gp130; remark: listed apart in the source
[31] = target: T2, Cynomolgus OSM; test: as above; remark: listed apart in the source
[32] = target: T1, Human OSM; test: BIAcore kinetics, purified antibody; remark: listed apart in the source
[33] = target: T1, Human OSM; test: direct ELISA, human OSM coated at 1 µg/ml, detection with anti-human IgG
Procedure: Both the 10G8 and 9G2 chimaeras successfully bound to human OSM, to a greater extent than 15E10chimera (15E10c) (FIG. 11). This was a direct ELISA where human OSM was coated at 1 μg/ml and bound antibodies detected using anti-human IgG.

B3: 3E3, murine anti-OSM mAb (antibody, V domains shown)
VH: EVQLVESGGDLVKPGGSLKLSCVPSGFTFSSYAMSWVRQTPEKRLEWVATISDGGSFTYYFANIQGRFTISRDNTKNNLYLQMNHLKSEDAGMYYCARDVGLTTFWYFDVWGTGTTVTVSS
VL: DIVLTQSPASLTISLGQRATISCRASKSVSPSGYDFMHWYQQKPGQPPKLLIKYASELESGVPGRFSGSGSGTDFTLNIHPVEEEDAATYFCQHSREFPFTFGGGTKLEIK
notes: Mouse hybridoma mAb; also called 3E3/A1; 3E3.A1
IC50 [22]: 0.19 µg/mL and 1.3 nM
IC50 [23]: 0.06 µg/mL and 0.4 nM
Kd [25]: 1.3 nM
Kd [26]: 3.28 nM
KB cell neutralisation assay, mean IC50 [27]: 0.054 µg/ml and 360 pM
KB cell neutralisation assay, mean IC50 [28]: 0.15 µg/ml and 1 nM

B4: 10G8 chimaera (antibody, human IgG1, kappa, V domains shown)
VH: EMQLVESGEGLVEPGGSLKLSCAASGFTFSNYAMSWVRQTPEKSLEWVATISDGGSFTYYLDNVRGRFTISRDNAKNNLYLQMSHLKSDDTAMYYCARDVGHTTFWYFDVWGSGTLVTVSS
VL: DIVLTQSPVFLVVSLGQRATISCRASKSVSAAGYNFMHWYQQKPGQPPKVLIKYASNLESGVPARFSGSGSGTDFTLNIHPVEEEDAVTYYCLHSREFPFTFGGGTNLEIKR
notes: Mouse V regions on human gamma 1 wild type and human kappa constant regions; the entries called VH/VL domain (chimera) are full chains; also called 10G8 chimera; 10G8 Chimæra
KB cell neutralisation assay, mean IC50 [18]: 0.021 µg/ml and 140 pM
KB cell neutralisation assay, mean IC50 [19]: 0.008 µg/ml and 53 pM
Kd [20]: 0.654 nM
koff [20]: 0.000152 s⁻¹
kon [20]: 233000 M⁻¹ s⁻¹
Kd [21]: 0.48 nM
koff [21]: 0.000114 s⁻¹
kon [21]: 237000 M⁻¹ s⁻¹
Kd [1]: 0.184 nM
koff [1]: 7.87e-05 s⁻¹
kon [1]: 427000 M⁻¹ s⁻¹
Kd [2]: 0.266 nM
koff [2]: 6.63e-05 s⁻¹
kon [2]: 250000 M⁻¹ s⁻¹
IC50 [24]: 0.009 µg/mL and 0.06 nM
Kd [32]: 0.407 nM
koff [32]: 0.000105 s⁻¹
kon [32]: 257000 M⁻¹ s⁻¹
IC50 [7]: 0.0091 µg/mL and 0.061 nM
EC50 (read off the curve) [33]: ~0.2 nM
Kd [8]: 0.518 nM
koff [8]: 0.000125 s⁻¹
kon [8]: 241000 M⁻¹ s⁻¹
Kd [9]: 0.394 nM
koff [9]: 9.95e-05 s⁻¹
kon [9]: 253000 M⁻¹ s⁻¹
IC50 [30]: 0.037 µg/mL and 0.247 nM
IC50 [31]: 0.016 µg/mL and 0.107 nM
KB cell neutralisation assay, mean IC50 [10]: 0.022 µg/ml and 144 pM
KB cell neutralisation assay, mean IC50 [11]: 0.008 µg/ml and 100 pM
Kd [14]: 0.407 nM
koff [14]: 0.000103 s⁻¹
kon [14]: 252000 M⁻¹ s⁻¹
KB cell neutralisation assay, mean IC50 [15]: 0.0052 µg/ml and 35 pM
KB cell neutralisation assay, mean IC50 [16]: 0.0271 µg/ml and 181 pM
KB cell neutralisation assay, mean IC50 [17]: 0.0011 µg/ml and 7 pM

Results, then the binder that gave them:

Kd [1]: 0.125 nM
koff [1]: 8.9e-05 s⁻¹
kon [1]: 712000 M⁻¹ s⁻¹
Kd [2]: 0.195 nM
koff [2]: 8.31e-05 s⁻¹
kon [2]: 427000 M⁻¹ s⁻¹
KB cell neutralisation assay, mean IC50 [3]: 0.009 µg/ml and 60 pM
KB cell neutralisation assay, mean IC50 [4]: 0.007 µg/ml and 47 pM
Kd [5]: 0.445 nM
koff [5]: 0.000151 s⁻¹
kon [5]: 340000 M⁻¹ s⁻¹
Kd [6]: 0.341 nM
koff [6]: 0.000115 s⁻¹
kon [6]: 338000 M⁻¹ s⁻¹
IC50 [7]: 0.0058 µg/mL and 0.039 nM
Kd [8]: 0.355 nM
koff [8]: 0.000137 s⁻¹
kon [8]: 387000 M⁻¹ s⁻¹
Kd [9]: 0.251 nM
koff [9]: 0.000107 s⁻¹
kon [9]: 426000 M⁻¹ s⁻¹
KB cell neutralisation assay, mean IC50 [10]: 0.015 µg/ml and 102 pM
KB cell neutralisation assay, mean IC50 [11]: 0.007 µg/ml and 21 pM
Kd [12]: 0.461 nM
koff [12]: 0.000153 s⁻¹
kon [12]: 332000 M⁻¹ s⁻¹
Kd [13]: 0.301 nM
koff [13]: 0.000104 s⁻¹
kon [13]: 345000 M⁻¹ s⁻¹
Kd [14]: 0.25 nM
koff [14]: 9.95e-05 s⁻¹
kon [14]: 398000 M⁻¹ s⁻¹
KB cell neutralisation assay, mean IC50 [15]: 0.0028 µg/ml and 19 pM
KB cell neutralisation assay, mean IC50 [16]: 0.0017 µg/ml and 11 pM
KB cell neutralisation assay, mean IC50 [17]: 0.0014 µg/ml and 9 pM
B1: Humanised 10G8 H0L1 (antibody, human IgG1, kappa, V domains shown)
VH: EVQLVESGGGLVQPGGSLRLSCAASGFTFSNYAMSWVRQAPGKGLEWVATISDGGSFTYYLDNVRGRFTISRDNAKNSLYLQMNSLRAEDTAVYYCARDVGHTTFWYFDVWGRGTLVTVSS
VL: DIVMTQSPDSLAVSLGERATINCRASKSVSAAGYNFMHWYQQKPGQPPKVLIYYASNLESGVPDRFSGSGSGTDFTLTISSLQAEDVAVYYCLHSREFPFTFGGGTKVEIKR
notes: IgG1 kappa; mature H0 heavy chain and mature L1 light chain; also called Humanised 10G8 H0L1 parent

KB cell neutralisation assay, mean IC50 [18]: 0.163 µg/ml and 1.1 nM
KB cell neutralisation assay, mean IC50 [19]: 0.046 µg/ml and 307 pM
Kd [20]: 1.6 nM
koff [20]: 0.000121 s⁻¹
kon [20]: 75200 M⁻¹ s⁻¹
Kd [21]: 0.775 nM
koff [21]: 4.76e-05 s⁻¹
kon [21]: 61400 M⁻¹ s⁻¹
IC50 [22]: 0.16 µg/mL and 1.1 nM
IC50 [23]: 0.03 µg/mL and 0.2 nM
IC50 [24]: 0.02 µg/mL and 0.133 nM
Kd [25]: 1.6 nM
Kd [26]: 0.75 nM
KB cell neutralisation assay, mean IC50 [27]: 0.018 µg/ml and 120 pM
KB cell neutralisation assay, mean IC50 [28]: 100 pM and 0.015 µg/ml
IC50 (read off the curve); IL-6 release from KB cells stimulated with human OSM, 25% human AB serum [29]: ~0.03 µg/mL
IC50 [30]: 0.038 µg/mL and 0.253 nM
IC50 [31]: 0.049 µg/mL and 0.327 nM
B2: 9G2, murine anti-OSM mAb (antibody, V domains shown)
VH: B4 VH with M2V, E9G, S44R, R65K, S113T, L116T
VL: B3 VL with A9V, S10F, T12V, P31A, D35N, L50V, E57N, G64A, A88V, F91Y
notes: Mouse hybridoma mAb; also called 9G2/C1; 9G2.C1

KB cell neutralisation assay, mean IC50 [18]: 0.231 µg/ml and 1.5 nM
KB cell neutralisation assay, mean IC50 [19]: 0.031 µg/ml and 207 pM
Kd [20]: 1.33 nM
koff [20]: 0.000168 s⁻¹
kon [20]: 126000 M⁻¹ s⁻¹
Kd [21]: 0.787 nM
koff [21]: 9.99e-05 s⁻¹
kon [21]: 127000 M⁻¹ s⁻¹
IC50 [24]: 0.017 µg/mL and 0.113 nM
EC50 (read off the curve) [33]: ~0.4 nM
IC50 [30]: 0.078 µg/mL and 0.52 nM
IC50 [31]: 0.028 µg/mL and 0.187 nM
B5: 9G2 chimaera (antibody, human IgG1, kappa, V domains shown)
VH: B4 VH with M2V, E9G, S44R, R65K, S113T
VL: B4 VL with V13I, A32S, L93Q, N107K
notes: Mouse V regions on human gamma 1 wild type and human kappa constant regions; also called 9G2 chimera
